The record followed here is article PMC9962951, “Olive Polyphenol Oxidase Gene Family” (International Journal of Molecular Sciences, 2023).

What is called Km is the substrate concentration at which the rate is half of its maximum. A word on the Vmax: it is the rate approached at saturating substrate.

Substrate in data set [1]: CC(C)(C)c1ccc(O)c(O)c1
Kind of data set: purified protein. In kind it is biochemical, Olea europaea. As to conditions: diphenolase, 50 mM sodium phosphate pH 6.8, 1 mM SDS, 25 °C, substrate range 0.2–7 mM.

Substrate in data set [2]: NCCc1ccc(O)cc1
The data set can be described thus: purified protein. In kind it is biochemical, Olea europaea. To be noted: monophenolase, pH 6.8, 25 °C, substrate range 0.2–7 mM.

B1: OePPO3 (Olea europaea subsp. europaea) (protein)
chain: APISAPDVTTCGPADLPQGAAPTNCCPPPTGEILDFKFPPPPTTMRVRPAAHLADEAYIAKFNRAVELMRALPDDDPRSFRQQANVHCAYCDGAYDQVGFPNLELQVHNSWLFFPFHRYYLYFFERILGNLIDDPTFAMPFWNYDAPGGMHLPAIYANQNSSLYDPLRDSAHQPPAFIDLNFSGSDANTGEAQQTSRNLTIMYRQMVSNSKTPRLFFGSPYRRGEDPNPGSGSIENIPHGPVHVWTGDRTQPNFENMGNFYSAGRDPIFFAHHSNIDRMWTLWKTLGGRRQDITDPDFLDASFVFYDENAKMVRVKVRDCLDHTKLGYVYQDVEVPWLRSRPKPRISSVVRKLKKLVRANAADIPSPKDIFPAKLDQVIKVMVKRPKKKRSKKEKDELEEILIIQGIELERDVYAKFDVFINDEDDEESTPENTEFAGSFVNVPHKHKNDKKIKTNLRLSITDILEDLDAEDDQHVLVTLVPKNFGDAITVHGIKIELDD
notes: GST tag cut off with PreScission (pGEX6P.1); E. coli BL21(DE3); about 54 kDa
As to B1, the Km in data set [1] worked out at 800 µM; in data set [2] it was 700 µM. The values for the Vmax in data set [1] and in data set [2] were 130 µmol/min/mg and 2.7 µmol/min/mg, respectively.
